Results as given in publication PMC3143299 (Journal of molecular biology, 2011).
Several values for one entry are separate records, joined by “and”; a condition that tells them apart may be missing. Equal values may be shown once.

Assays:
[1] = target: actin purified from rabbit skeletal muscle (F-actin) (rabbit, UniProt P68135 1-377); assay: co-sedimentation
cross-linking = target: the molecule itself; assay: cross-linking

Kd [1]: 160 ± 30 nM
stoichiometry N [1]: 2 FRG1 per actin monomer
B1: recombinant full-length human FRG1 (His-tagged) (natural protein)
chain: not shown
stoichiometry N (cross-linking): 2 and 4
